PMC4666396, “Mammalian splicing factor SF1 interacts with SURP domains of U2 snRNP-associated proteins” (Nucleic Acids Research, 2015)

What was measured:
Assay in all cases: pull-down; GST fusion proteins on glutathione-agarose; His6- or His6-MBP-tagged SF1 proteins in two-fold molar excess; NETN (20 mM Tris-HCl pH 8.0, 50 mM NaCl, 0.5% NP-40, 0.5 mM EDTA), 45 min 4°C; with or without RNase A; western blot with anti-His6
Conditions in all cases: both partners purified
His6-SF1-C370 = molecular target: T1, His6-SF1-C370 (human, UniProt Q15637 1-370)
T1 construct: human SF1, amino acids 1–370, the region common to all SF1 isoforms; in pTrcHisA; source: E. coli XL1-Blue, purified (TALON resin, lysis in 8 M urea, dialyzed); not shown: His6, N-terminal, kept
T1 sequence (looked up): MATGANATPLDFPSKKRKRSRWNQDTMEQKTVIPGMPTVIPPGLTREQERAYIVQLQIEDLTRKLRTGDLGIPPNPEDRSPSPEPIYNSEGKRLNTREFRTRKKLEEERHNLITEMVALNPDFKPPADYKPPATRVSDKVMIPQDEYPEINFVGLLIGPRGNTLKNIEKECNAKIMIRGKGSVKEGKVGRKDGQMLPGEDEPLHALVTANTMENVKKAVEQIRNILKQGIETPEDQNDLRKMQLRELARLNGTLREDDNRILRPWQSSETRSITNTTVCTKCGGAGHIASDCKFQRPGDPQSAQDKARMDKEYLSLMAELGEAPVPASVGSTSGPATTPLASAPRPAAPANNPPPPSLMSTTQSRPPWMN

His6-SF1-C327 = molecular target: T2, His6-SF1-C327 (human, UniProt Q15637 1-327)
T2 construct: human SF1, C-terminal truncation to residue 327; SF1-C370 is 1–370; source: E. coli XL1-Blue, purified (TALON resin, lysis in 8 M urea, dialyzed); not shown: His6, N-terminal, kept
T2 sequence (looked up): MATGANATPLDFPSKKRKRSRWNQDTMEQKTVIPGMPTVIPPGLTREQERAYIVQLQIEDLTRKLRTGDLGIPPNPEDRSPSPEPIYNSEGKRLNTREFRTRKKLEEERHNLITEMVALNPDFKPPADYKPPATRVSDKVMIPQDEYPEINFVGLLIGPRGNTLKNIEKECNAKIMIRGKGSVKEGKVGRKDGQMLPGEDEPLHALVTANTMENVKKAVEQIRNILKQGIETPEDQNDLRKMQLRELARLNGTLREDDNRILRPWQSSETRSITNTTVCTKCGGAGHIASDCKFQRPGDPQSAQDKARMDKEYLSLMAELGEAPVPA

His6-SF1-C320 = molecular target: T3, His6-SF1-C320 (human, UniProt Q15637 1-320)
T3 construct: human SF1, C-terminal truncation to amino acid 320; it follows the naming of the other truncations; also called deletion to amino acid 320; source: E. coli XL1-Blue, purified (TALON resin, lysis in 8 M urea, dialyzed); not shown: His6, N-terminal, kept
T3 sequence (looked up): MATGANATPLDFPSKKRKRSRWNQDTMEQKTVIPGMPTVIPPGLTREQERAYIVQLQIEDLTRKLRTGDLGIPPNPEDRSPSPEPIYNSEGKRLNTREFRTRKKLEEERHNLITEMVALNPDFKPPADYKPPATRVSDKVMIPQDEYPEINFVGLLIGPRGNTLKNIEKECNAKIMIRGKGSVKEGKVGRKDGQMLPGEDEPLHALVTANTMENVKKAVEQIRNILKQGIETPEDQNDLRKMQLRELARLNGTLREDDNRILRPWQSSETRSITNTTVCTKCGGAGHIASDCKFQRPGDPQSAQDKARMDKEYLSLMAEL

His6-SF1-C315 = molecular target: T4, His6-SF1-C315 (human, UniProt Q15637 1-315)
T4 construct: source: E. coli XL1-Blue, purified (TALON resin, lysis in 8 M urea, dialyzed); not shown: His6, N-terminal, kept
T4 sequence (looked up): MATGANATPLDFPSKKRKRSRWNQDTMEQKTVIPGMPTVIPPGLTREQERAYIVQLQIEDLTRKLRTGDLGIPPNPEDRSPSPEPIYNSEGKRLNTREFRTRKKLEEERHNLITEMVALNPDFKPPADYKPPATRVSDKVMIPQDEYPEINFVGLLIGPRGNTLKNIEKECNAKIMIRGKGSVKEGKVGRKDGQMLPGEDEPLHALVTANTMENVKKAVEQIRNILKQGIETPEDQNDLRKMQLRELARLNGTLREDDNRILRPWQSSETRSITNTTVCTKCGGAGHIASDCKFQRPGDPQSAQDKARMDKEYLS

His6-SF1-C302 = molecular target: T5, His6-SF1-C302 (human, UniProt Q15637 1-302)
T5 construct: source: E. coli XL1-Blue, purified (TALON resin, lysis in 8 M urea, dialyzed); not shown: His6, N-terminal, kept
T5 sequence (looked up): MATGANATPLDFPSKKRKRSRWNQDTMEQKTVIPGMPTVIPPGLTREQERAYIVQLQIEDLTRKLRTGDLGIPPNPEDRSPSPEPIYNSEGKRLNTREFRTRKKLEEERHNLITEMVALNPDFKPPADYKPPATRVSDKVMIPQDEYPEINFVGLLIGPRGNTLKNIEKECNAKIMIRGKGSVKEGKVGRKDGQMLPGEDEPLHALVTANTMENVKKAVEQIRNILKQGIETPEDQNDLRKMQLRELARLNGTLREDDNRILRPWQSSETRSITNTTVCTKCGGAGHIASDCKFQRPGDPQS

[1] = molecular target: T6, His6-MBP-SF1-C370 Δ306–326 (human, UniProt Q15637 1-370, Δ306–326, replaced by one KpnI site encoding Gly and Thr)
T6 construct: in pETMBP-1a; source: E. coli BL21, purified (TALON resin, lysis in 8 M urea, dialyzed); not shown: His6, N-terminal, kept; MBP, N-terminal, kept
T6 sequence (looked up): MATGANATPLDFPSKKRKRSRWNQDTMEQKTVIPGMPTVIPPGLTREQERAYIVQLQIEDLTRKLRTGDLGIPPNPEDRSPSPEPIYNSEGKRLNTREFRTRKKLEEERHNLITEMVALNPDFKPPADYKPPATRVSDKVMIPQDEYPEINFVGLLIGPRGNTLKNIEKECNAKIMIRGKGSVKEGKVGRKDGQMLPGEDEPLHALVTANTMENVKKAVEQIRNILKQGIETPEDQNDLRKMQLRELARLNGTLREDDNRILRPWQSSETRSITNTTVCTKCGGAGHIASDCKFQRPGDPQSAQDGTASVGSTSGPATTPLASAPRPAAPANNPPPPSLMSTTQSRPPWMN

Measured: binding result

B1: GST-CHERP-SURP (domain or fragment, UniProt Q8IWX8 1-75, looked up)
chain: MEMPLPPDDQELRNVIDKLAQFVARNGPEFEKMTMEKQKDNPKFSFLFGGEFYSYYKCKLALEQQQLICKQQTPE
notes: single SURP domain of CHERP, amino acids 1–75, in pDEST15; also called single SURP domain of CHERP; source: E. coli BL21, purified (glutathione agarose)
binds: His6-SF1-C370 | His6-SF1-C327

B2: GST-SF3a120-SURP1 (domain or fragment, UniProt Q15459 38-113, looked up)
chain: PVVGIIYPPPEVRNIVDKTASFVARNGPEFEARIRQNEINNPKFNFLNPNDPYHAYYRHKVSEFKEGKAQEPSAAI
notes: SURP1 of SF3a120, amino acids 38–113, in pDEST15; also called SURP1 of SF3a120; source: E. coli BL21, purified (glutathione agarose)
binds: His6-SF1-C370 | His6-SF1-C327

B3: GST-U2AF65-UHM (domain or fragment, UniProt P26368 367-475, looked up)
chain: QVQMGGHPTEVLCLMNMVLPEELLDDEEYEEIVEDVRDECSKYGLVKSIEIPRPVDGVEVPGCGKIFVEFTSVFDCQKAMQGLTGRKFANRVVVTKYCDPDSYHRRDFW
notes: U2AF homology motif (UHM) of U2AF65, amino acids 367–475; also called U2AF homology motif of U2AF65; source: E. coli XL1-Blue, purified (glutathione agarose)
binds: His6-SF1-C370 | His6-SF1-C327 | His6-SF1-C320 | His6-SF1-C315 | His6-SF1-C302 | [1]
